Assay [1] deals with Human Serum Albumin (human), P02768. Description: calculated from KD(HSA) at 150 µM HSA (equation 2).
Assay [2] shares this target. Briefly: Transil XL HSA binding kit (immobilized HSA), unbound compound by RP-HPLC.

Turning to IETDV (modifications not checked) [FA-linked dimeric ligand 14], in assay [1], the fu (%), fraction unbound is 43.6%. Moreover, the dissociation constant Kd – broadly, the free concentration of one partner at which half of the binding sites on the other are occupied at equilibrium, for simple one-to-one binding – in assay [2] was 116 µM.

For IETDV (modifications not checked) [FA-linked dimeric ligand 15], the fu (%), fraction unbound in assay [1] was 26.8%. The dissociation constant Kd in assay [2] turned out to be 55 µM.

These data come from US20160303245A1, “FATTY ACID DERIVATIVES OF DIMERIC INHIBITORS OF PSD-95” (UNIVERSITY OF COPENHAGEN, priority 2013, published 2016).
